# Measured values published in IntAct's records for PubMed 24630722.
# B1: Interferon-inducible protein AIM2 (Homo sapiens), O14862 (parent)
# chain: MESKYKEILLLTGLDNITDEELDRFKFFLSDEFNIATGKLHTANRIQVATLMIQNAGAVSAVMKTIRIFQKLNYMLLAKRLQEEKEKVDKQYKSVTKPKPLSQAEMSPAASAAIRNDVAKQRAAPKVSPHVKPEQKQMVAQQESIREGFQKRCLPVMVLKAKKPFTFETQEGKQEMFHATVATEKEFFFVKVFNTLLKDKFIPKRIIIIARYYRHSGFLEVNSASRVLDAESDQKVNVPLNIIRKAGETPKINTLQTQPLGTIVNGLFVVQKVTEKKKNILFDLSDNTGKMEVLGVRNEDTMKCKEGDKVRLTFFTLSKNGEKLQLTSGVHSTIKVIKAKKKT
# Variants of: B1
# Details: with asc_human PYCARD
row,Variant,effect of a mutation on the interaction
1,MESKYKEILLLTGLRNITDEELDRFKFFLSDEFNIATGKLHTANRIQVATLMIQNAGAVSAVMKTIRIFQKLNYMLLAKRLQEEKEKVDKQYKSVTKPKPLSQAEMSPAASAAIRNDVAKQRAAPKVSPHVKPEQKQMVAQQESIREGFQKRCLPVMVLKAKKPFTFETQEGKQEMFHATVATEKEFFFVKVFNTLLKDKFIPKRIIIIARYYRHSGFLEVNSASRVLDAESDQKVNVPLNIIRKAGETPKINTLQTQPLGTIVNGLFVVQKVTEKKKNILFDLSDNTGKMEVLGVRNEDTMKCKEGDKVRLTFFTLSKNGEKLQLTSGVHSTIKVIKAKKKT [D15R],disrupting interaction strength
2,MESKYKEILAATGLDNITDEELDRFKFFLSDEFNIATGKLHTANRIQVATLMIQNAGAVSAVMKTIRIFQKLNYMLLAKRLQEEKEKVDKQYKSVTKPKPLSQAEMSPAASAAIRNDVAKQRAAPKVSPHVKPEQKQMVAQQESIREGFQKRCLPVMVLKAKKPFTFETQEGKQEMFHATVATEKEFFFVKVFNTLLKDKFIPKRIIIIARYYRHSGFLEVNSASRVLDAESDQKVNVPLNIIRKAGETPKINTLQTQPLGTIVNGLFVVQKVTEKKKNILFDLSDNTGKMEVLGVRNEDTMKCKEGDKVRLTFFTLSKNGEKLQLTSGVHSTIKVIKAKKKT [L10A;L11A],disrupting interaction strength
3,MESKYKEILLLTGLDNITDEELDEFKFFLSDEFNIATGKLHTANRIQVATLMIQNAGAVSAVMKTIRIFQKLNYMLLAKRLQEEKEKVDKQYKSVTKPKPLSQAEMSPAASAAIRNDVAKQRAAPKVSPHVKPEQKQMVAQQESIREGFQKRCLPVMVLKAKKPFTFETQEGKQEMFHATVATEKEFFFVKVFNTLLKDKFIPKRIIIIARYYRHSGFLEVNSASRVLDAESDQKVNVPLNIIRKAGETPKINTLQTQPLGTIVNGLFVVQKVTEKKKNILFDLSDNTGKMEVLGVRNEDTMKCKEGDKVRLTFFTLSKNGEKLQLTSGVHSTIKVIKAKKKT [R24E],disrupting interaction strength

# Results, then the variant that gave them:
row,effect of a mutation on the interaction,Variant
1,disrupting interaction strength,MESKYKEILLLTGLDNITDEELDRFKFFLSDEFNIATGKLHTANRIQVATLMIQNAGAVSAVMKTIRIFQKLNRMLLAKRLQEEKEKVDKQYKSVTKPKPLSQAEMSPAASAAIRNDVAKQRAAPKVSPHVKPEQKQMVAQQESIREGFQKRCLPVMVLKAKKPFTFETQEGKQEMFHATVATEKEFFFVKVFNTLLKDKFIPKRIIIIARYYRHSGFLEVNSASRVLDAESDQKVNVPLNIIRKAGETPKINTLQTQPLGTIVNGLFVVQKVTEKKKNILFDLSDNTGKMEVLGVRNEDTMKCKEGDKVRLTFFTLSKNGEKLQLTSGVHSTIKVIKAKKKT [Y74R]
2,disrupting interaction strength,MESKYKEILLLTGLDNITDEELDRFKGFLSDEFNIATGKLHTANRIQVATLMIQNAGAVSAVMKTIRIFQKLNYMLLAKRLQEEKEKVDKQYKSVTKPKPLSQAEMSPAASAAIRNDVAKQRAAPKVSPHVKPEQKQMVAQQESIREGFQKRCLPVMVLKAKKPFTFETQEGKQEMFHATVATEKEFFFVKVFNTLLKDKFIPKRIIIIARYYRHSGFLEVNSASRVLDAESDQKVNVPLNIIRKAGETPKINTLQTQPLGTIVNGLFVVQKVTEKKKNILFDLSDNTGKMEVLGVRNEDTMKCKEGDKVRLTFFTLSKNGEKLQLTSGVHSTIKVIKAKKKT [F27G]
3,decreasing interaction strength,MESKYKEILLLTGLDNITDEELDRFKFFLSDEFNIATGELHTANRIQVATLMIQNAGAVSAVMKTIRIFQKLNYMLLAKRLQEEKEKVDKQYKSVTKPKPLSQAEMSPAASAAIRNDVAKQRAAPKVSPHVKPEQKQMVAQQESIREGFQKRCLPVMVLKAKKPFTFETQEGKQEMFHATVATEKEFFFVKVFNTLLKDKFIPKRIIIIARYYRHSGFLEVNSASRVLDAESDQKVNVPLNIIRKAGETPKINTLQTQPLGTIVNGLFVVQKVTEKKKNILFDLSDNTGKMEVLGVRNEDTMKCKEGDKVRLTFFTLSKNGEKLQLTSGVHSTIKVIKAKKKT [K39E]
4,decreasing interaction strength,MESKYKEILLLTGLDNITDEELDRFKFFLSDEFNIATEKLHTANRIQVATLMIQNAGAVSAVMKTIRIFQKLNYMLLAKRLQEEKEKVDKQYKSVTKPKPLSQAEMSPAASAAIRNDVAKQRAAPKVSPHVKPEQKQMVAQQESIREGFQKRCLPVMVLKAKKPFTFETQEGKQEMFHATVATEKEFFFVKVFNTLLKDKFIPKRIIIIARYYRHSGFLEVNSASRVLDAESDQKVNVPLNIIRKAGETPKINTLQTQPLGTIVNGLFVVQKVTEKKKNILFDLSDNTGKMEVLGVRNEDTMKCKEGDKVRLTFFTLSKNGEKLQLTSGVHSTIKVIKAKKKT [G38E]
